# Data as given in US20250064976A1 (BROAD INSTITUTE, published 2025).
# B1: human paraneoplastic antigen Ma2 (PNMA2), recombinant, purified from E. coli (other)
# chain: ALALLEDWCRIMSVDEQKSLMVTGIPADFEEAEIQEVLQETLKSLGRYRLLGKIFRKQENANAVLLELLEDTDVSAIPSEVQGKGGVWKVIFKTPNQDTEFLERLNLFLEKEGQTVSGMFRALGQEGVSPATVPCISPELLAHLLGQAMAHAPQPLLPMRYRKLRVFSGSAVPAPEEESFEVWLEQATEIVKEWPVTEAEKKRWLAESLRGPALDLMHIVQADNPSISVEECLEAFKQVFGSLESRRTAQVRYLKTYQEEGEKVSAYVLRLETLLRRAVEKRAIPRRIADQVRLEQVMAGATLNQMLWCRLRELKDQGPPPSFLELMKVIREEEEEEASFENESIEEPEERDGYGRWNHEGDD
# notes: Written as the monomer; Only residues 158-340 were resolved by cryo-EM; also called PNMA2 monomer; wild-type PNMA2
# B2: PNMA2(340)-CCMV(30), engineered PNMA2 (other)
# chain: MALALLEDWCRIMSVDEQKSLMVTGIPADFEEAEIQEVLQETLKSLGRYRLLGKIFRKQENANAVLLELLEDTDVSAIPSEVQGKGGVWKVIFKTPNQDTEFLERLNLFLEKEGQTVSGMFRALGQEGVSPATVPCISPELLAHLLGQAMAHAPQPLLPMRYRKLRVFSGSAVPAPEEESFEVWLEQATEIVKEWPVTEAEKKRWLAESLRGPALDLMHIVQADNPSISVEECLEAFKQVFGSLESRRTAQVRYLKTYQEEGEKVSAYVLRLETLLRRAVEKRAIPRRIADQVRLEQVMAGATLNQMLWCRLRELKDQGPPPSFLELMKVIREEEEEEASMSTVGTGKLTRAQRRAAARKNKRNTRVVQP
# notes: Written as the monomer; The disordered C-terminal region of PNMA2 is replaced by the N-terminal 30 residues of CCMV; It was purified from E. coli and forms capsids like wild-type PNMA2; also called ePNMA2; PNMA2(1-340)-CCMV
# B3: HA-tagged PNMA2 overexpressed in HEK293FT cells (other)
# chain: B1 chain
# notes: also called HA-PNMA2; PNMA2-HA; not shown: HA tag at the N-terminus
# Tests used:
# [1] = target: the molecule itself; assay: capsid formation (homo-oligomer)
# [2] = target: the molecule itself; assay: TEM of protein purified from E. coli
# [3] = target: the molecule itself; assay: TEM of the HA-immunoprecipitated VLP fraction from HEK293FT cells
# Source text: Successful isolation was confirmed by Coommassie staining and protein capsids were imaged using TEM as described previously.
protein,measurement,setting,value
B1,binding result,[1],binds
B2,binding result,[2],binds
B3,binding result,[3],binds
